In the supplement of paper PMC10724198:
± gives the standard deviation of the averaged measurements.

Columns and labels:
Saccharomyces cerevisiae [1] = test: protein stability index of tFT-peptide fusion (C-terminal peptide) (PSI (0-1 scale)); higher = more stable (slower turnover)
Protocol: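 MPS profiling in S. cerevisiae of the tFT-X12 degron library: putative degron peptides plus stable controls, 12 aa, fused to the C-terminus of a sfGFP-mCherry timer. Cells are FACS-sorted into 8 mCherry/sfGFP bins and deep-sequenced. PSI runs from 0 (unstable) to 1 (stable). Backgrounds are wild type, das1Δ and doa10Δ at 30 °C, and wild type, das1Δ, cdc34-1 and cdc53-1 at 37 °C; 2-3 technical replicates each.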

Saccharomyces cerevisiae [2] = test: as above; settings: genetic background: wild type; temperature: 30 C
Saccharomyces cerevisiae [3] = test: protein stability index of tFT-peptide fusion in deletion strain of DOA10 (PSI (0-1 scale)); higher = more stable (slower turnover)
Protocol: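 MPS profiling in S. cerevisiae of two library types built from selected 12-aa C-degron peptides (IN1, IN2, LN1, LN3, VN2, R1-R5, W1-W3, Atg1 and Rpa12 C-termini): saturation mutagenesis libraries and C-terminal +1 capping libraries (13 aa). Each peptide is fused to the C-terminus of a sfGFP-mCherry timer, after a GGGS linker. Cells are FACS-sorted into 8 mCherry/sfGFP bins and sequenced. PSI runs from 0 (unstable) to 1 (stable), measured once in wild type and in the das1Δ or doa10Δ background.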

Saccharomyces cerevisiae [4] = test: protein stability index of tFT-peptide fusion in wild type (PSI (0-1 scale)); higher = more stable (slower turnover); settings: genetic background: wild type
[5] = genetic background: cdc34-1, temperature: 37 C
[6] = genetic background: cdc53-1, temperature: 37 C
[7] = genetic background: das1 deletion, temperature: 30 C
[8] = genetic background: das1 deletion, temperature: 37 C
[9] = genetic background: doa10 deletion, temperature: 30 C
[10] = genetic background: wild type, temperature: 30 C
[11] = genetic background: wild type, temperature: 37 C
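For protein stability index of tFT-peptide fusion (C-terminal peptide) in this document: PSI is a weighted mean of sequencing reads over stability bins, variants kept only with over 10 reads, mCherry proximal and sfGFP distal, peptide attached via GGGS linker.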
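For protein stability index of tFT-peptide fusion in deletion strain of DOA10 in this document: PSI per variant is the weighted mean of its sequencing read distribution over the sorted stability bins, counting only variants with over 10 reads summed across bins.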
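For protein stability index of tFT-peptide fusion in wild type in this document: PSI derived as read-weighted mean over the 8 sorting bins, only variants exceeding 10 total reads kept, mCherry placed adjacent to the peptide and sfGFP distal.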

Sequence | protein stability index (Saccharomyces cerevisiae [3]) | protein stability index (Saccharomyces cerevisiae [4]) | other results
AITLPMCPLLLR | 0.649 | 0.207 | protein stability index (Saccharomyces cerevisiae [1]; [5]): 0.0636 ± 0.0091; protein stability index (Saccharomyces cerevisiae [1]; [6]): 0.047 ± 0.0088; protein stability index (Saccharomyces cerevisiae [1]; [7]): 0.165 ± 0.017; protein stability index (Saccharomyces cerevisiae [1]; [8]): 0.204 ± 0.014; protein stability index (Saccharomyces cerevisiae [1]; [9]): 0.6226 ± 0.0028; protein stability index (Saccharomyces cerevisiae [1]; [10]): 0.16 ± 0.027; protein stability index (Saccharomyces cerevisiae [1]; [11]): 0.157 ± 0.0086; protein stability index (Saccharomyces cerevisiae [2]): 0.256 ± 0.018
CLVSLPILLFFR | 0.586 | 0.0566 | protein stability index (Saccharomyces cerevisiae [1]; [5]): 0.0435 ± 0.013; protein stability index (Saccharomyces cerevisiae [1]; [6]): 0.0381 ± 0.0045; protein stability index (Saccharomyces cerevisiae [1]; [7]): 0.0501 ± 0.019; protein stability index (Saccharomyces cerevisiae [1]; [8]): 0.0652 ± 0.014; protein stability index (Saccharomyces cerevisiae [1]; [9]): 0.545 ± 0.023; protein stability index (Saccharomyces cerevisiae [1]; [10]): 0.0298 ± 0.0067; protein stability index (Saccharomyces cerevisiae [1]; [11]): 0.0556 ± 0.015; protein stability index (Saccharomyces cerevisiae [2]): 0.0658 ± 0.021
CLYSLPILLFFR | 0.586 | 0.0509 | –
DLVSLPILLFFR | 0.637 | 0.109 | –
DVTRLDAIYFRI | 0.739 | 0.481 | –
GFYMCSVGCWFR | 0.632 | 0.204 | –
GLHMCSVGCWFR | 0.682 | 0.214 | –
GLRMCSVGCWFR | 0.676 | 0.248 | –
GLVSLPILLFFR | 0.608 | 0.0632 | –
GLYMCHVGCWFR | 0.629 | 0.279 | –
GLYMCLVGCWFR | 0.406 | 0.254 | –
GLYMCRVGCWFR | 0.638 | 0.291 | –
GLYMCSVGCKFR | 0.654 | 0.619 | –
GLYMCSVGCVFR | 0.627 | 0.561 | –
GLYMCSVGCWER | 0.656 | 0.632 | –
GLYMCSVGCWFRH | 0.616 | 0.271 | –
GLYMCSVGCWFRL | 0.624 | 0.114 | –
GLYMCSVGCWTR | 0.601 | 0.555 | –
GLYMCSVGLWFR | 0.534 | 0.184 | –
GLYMCSVMCWFR | 0.383 | 0.263 | –
GLYMCSVNCWFR | 0.566 | 0.487 | –
GLYMCSVQCWFR | 0.416 | 0.354 | –
GLYMCVVGCWFR | 0.354 | 0.217 | –
GLYMCWVGCWFR | 0.387 | 0.182 | –
GLYMFSVGCWFR | 0.524 | 0.234 | –
GLYMNSVGCWFR | 0.704 | 0.351 | –

Sequence | protein stability index (Saccharomyces cerevisiae [3]) | protein stability index (Saccharomyces cerevisiae [4]) | other results
GVTRLDAIYFRI | 0.69 | 0.229 | –
KITLPMCPLLLR | 0.653 | 0.253 | –
MLYMCSVGCWFR | 0.604 | 0.328 | –
NLYMCSVGCWFR | 0.657 | 0.414 | –
PLYMCSVGCWFR | 0.643 | 0.462 | –
RALRVLLPLYFR | 0.669 | 0.353 | –
RLLRVLLPLYFR | 0.673 | 0.407 | –
RLYMCSVGCWFR | 0.644 | 0.382 | –
RQTRLDAIYFRI | 0.703 | 0.505 | –
RSKRVLLPLYFR | 0.675 | 0.362 | –
RSLKVLLPLYFR | 0.666 | 0.27 | –
RSLMVLLPLYFR | 0.637 | 0.34 | –
RSLRFLLPLYFR | 0.632 | 0.322 | –
RSLRLLLPLYFR | 0.656 | 0.289 | –
RSLRNLLPLYFR | 0.687 | 0.465 | –
RSLRSLLPLYFR | 0.702 | 0.469 | –
RSLRVLAPLYFR | 0.687 | 0.352 | –
RSLRVLLCLYFR | 0.471 | 0.306 | –
RSLRVLLILYFR | 0.38 | 0.23 | –
RSLRVLLMLYFR | 0.468 | 0.218 | –
RSLRVLLPLHFR | 0.714 | 0.517 | –
RSLRVLLPLSFR | 0.673 | 0.401 | –
RSLRVLLPLYFE | 0.64 | 0.524 | –
RSLRVLLPLYFF | 0.502 | 0.364 | –
RSLRVLLPLYFN | 0.165 | 0.107 | –
RSLRVLLPLYFRG | 0.694 | 0.324 | –

Sequence | protein stability index (Saccharomyces cerevisiae [3]) | protein stability index (Saccharomyces cerevisiae [4]) | other results
RSLRVLLPLYTR | 0.648 | 0.547 | –
RSLRVLVPLYFR | 0.657 | 0.218 | –
RSLRVMLPLYFR | 0.625 | 0.217 | –
RSLWVLLPLYFR | 0.605 | 0.284 | –
RSMRVLLPLYFR | 0.653 | 0.257 | –
RSTRLDAIYFRI | 0.678 | 0.53 | –
RSWRVLLPLYFR | 0.692 | 0.297 | –
RVMRLDAIYFRI | 0.656 | 0.302 | –
RVTILDAIYFRI | 0.663 | 0.545 | –
RVTKLDAIYFRI | 0.667 | 0.483 | –
RVTRLDAIGFRI | 0.696 | 0.69 | –
RVTRLDAIRFRI | 0.652 | 0.616 | –
RVTRLDAIYFDI | 0.734 | 0.7 | –
RVTRLDAIYFRIH | 0.143 | 0.087 | –
RVTRLDAIYFRIY | 0.242 | 0.123 | –
RVTRLDAIYMRI | 0.71 | 0.382 | –
RVTRLDAIYWRI | 0.684 | 0.385 | –
RVTRLDEIYFRI | 0.731 | 0.685 | –
RVTRLDYIYFRI | 0.538 | 0.179 | –
RVTRLLAIYFRI | 0.287 | 0.155 | –
RVTRLRAIYFRI | 0.314 | 0.159 | –
RVTRQDAIYFRI | 0.698 | 0.553 | –
RVTTLDAIYFRI | 0.661 | 0.524 | –
RVTWLDAIYFRI | 0.656 | 0.323 | –
RVWRLDAIYFRI | 0.543 | 0.246 | –
